First the molecules themselves.
T1: human common cytokine receptor γ-chain (γc; IL-2Rγ; CD132), recombinant protein (human, UniProt P31785 23-262)
T1 construct: also called human IL-2R subunit CD132
T1 sequence: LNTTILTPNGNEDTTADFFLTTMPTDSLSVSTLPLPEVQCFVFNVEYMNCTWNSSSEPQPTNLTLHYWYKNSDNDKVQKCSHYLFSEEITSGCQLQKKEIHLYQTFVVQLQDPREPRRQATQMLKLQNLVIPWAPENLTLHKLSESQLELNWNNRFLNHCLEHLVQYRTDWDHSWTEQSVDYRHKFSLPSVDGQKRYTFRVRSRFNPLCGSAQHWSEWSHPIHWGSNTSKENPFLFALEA

T2: mouse IL-2Rγ, recombinant protein (mouse, UniProt P34902 23-263, limits assumed)
T2 sequence (looked up): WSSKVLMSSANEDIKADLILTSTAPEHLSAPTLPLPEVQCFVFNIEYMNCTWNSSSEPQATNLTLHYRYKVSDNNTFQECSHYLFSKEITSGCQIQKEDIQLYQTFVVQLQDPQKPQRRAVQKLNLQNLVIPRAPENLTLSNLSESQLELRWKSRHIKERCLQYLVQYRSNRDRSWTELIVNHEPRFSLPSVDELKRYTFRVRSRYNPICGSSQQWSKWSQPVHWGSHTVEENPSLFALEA

T3: cynomolgus monkey IL-2Rγ/CD132 subunit (cynomolgus monkey, UniProt A0A2K5VGJ6 23-262)
T3 construct: also called Cyno IL-2R subunit
T3 sequence: T1 sequence with T14A, A16T, T22S, H141R, T228S

B1: 29-MP04H02 VHH (periplasmic extract) (VHH)
VHH: QVQLVESGGGLVQAGGSLRLACVASGLTFDNYYMGWFRQAPGKEREFVAGIIWNGDHTAYADSIKGRFTISRDNAKNTAYLRMNSLKPEDTAVYYCAATFWIERATTPDIGQYAYWGQGTQVTVSS
notes: soluble VHH in periplasmic extract
B2: 27-MP04G01 VHH (periplasmic extract) (VHH)
VHH: QVQLVESGGGLVQAGGSLTLSCAAPGRTFGTDVVGWFRQAPGKEREFVASISRSGDGIYYDDSVKGRFTISRNNAWNTVNLQMNSLKVEDTAVYYCAAGDGWSTYDYWGQGTQVTVSS
notes: as for B1
B3: 32-MP04A08 VHH (periplasmic extract) (VHH)
VHH: QVQLVESGGGLVQAGGSLRLSCAASGRTFGSTAVGWFRQVPGKEREFVSAINRSGSATTYADSVKGRFTISRDNAKNTVYLQMNSLTPEDTGVYYCAADSLPYGRPYYFQRSAGEYDYWGQGTQVTVSS
notes: as for B1
B4: 36-MP07F02 VHH (periplasmic extract) (VHH)
VHH: QVQLVESGGGLVQAGGSLRLSCAASGRTLSRYAMGWFRQAPGSEREFVAASSWGGDTFYADSVEGRFTFSRDNAKNAVYLQMNSLQPEDTAAYYCAAAPTSFPTTAYSSSNSYAYWGQGTQVTVSS
notes: as for B1
B5: 34-MP04A12 VHH (periplasmic extract) (VHH)
VHH: B4 VHH with G16S, Y32L, S43K, A50V, S51N, F69Y, N76S, A92V, P103A, T120A
notes: as for B1
B6: 37-MP07F09 VHH (periplasmic extract) (VHH)
VHH: B4 VHH with S43K, F47Y, A50I, S51D, A77E, A92V, A97G, P103A, A114R
notes: as for B1
B7: 38-MP07A11 VHH (periplasmic extract) (VHH)
VHH: QVQLVESGGGLVQAGGSLRLSCAASGRSLSRDAMGWFRQAPGKEREFVAVMSWGGDTFYTDSVEGRFTFSRDNAKNAVYLEMNDLQPEDTAVYYCAAAPTSFATTAYSSSNSYSYWGRGTQVTVSS
notes: as for B1
B8: 28-MP04D02 VHH (periplasmic extract) (VHH)
VHH: B4 VHH with S43K, A49T, S51N, F58Y, E64Q, A77T, A92V, P103A, S109G
notes: as for B1
B9: 31-MP04E03 VHH (periplasmic extract) (VHH)
VHH: QVQLVESGGGLVQAGGSLRLSCTGYGGAFTGYALGWFRQAPGKEREFVARINWSGSFTYYASSVKGRFTISRDNAKNTMYLQMNNLKPEDTAVYYCAADNPSTLATDYDNWGQGTQVTVSS
notes: as for B1
B10: 29-MP04H02 VHH-hFc, monospecific bivalent (Fc fusion)
chain: B1 VHH
notes: IgG1 Fc LALA-PG; not shown: human IgG1 CH2 and CH3 domains (Fc)
B11: 35-MP07G01 VHH-hFc, monospecific bivalent (Fc fusion)
chain: QVQLQESGGGLVQGGGSLRLSCAASGGIFSSYAMGWFRQAPGKEREFVAAISRSGRSTNYADSVKGRFTISRDNAKSTVYLQMNSLKPEETAVYYCAAGRYYNSAYDPSPGDFGSWGHGTQVTVSS
notes: as for B10
B12: 27-MP04G01 VHH-hFc, monospecific bivalent (Fc fusion)
chain: B2 VHH
notes: as for B10
B13: 36-MP07F02 VHH-hFc, monospecific bivalent (Fc fusion)
chain: B4 VHH
notes: as for B10
B14: 37-MP07F09 VHH-hFc, monospecific bivalent (Fc fusion)
chain: B4 VHH with S43K, F47Y, A50I, S51D, A77E, A92V, A97G, P103A, A114R
notes: as for B10
B15: 34-MP04A12 VHH-hFc, monospecific bivalent (Fc fusion)
chain: B4 VHH with G16S, Y32L, S43K, A50V, S51N, F69Y, N76S, A92V, P103A, T120A
notes: as for B10
B16: 38-MP07A11 VHH-hFc, monospecific bivalent (Fc fusion)
chain: B7 VHH
notes: as for B10
B17: 28-MP04D02 VHH-hFc, monospecific bivalent (Fc fusion)
chain: B4 VHH with S43K, A49T, S51N, F58Y, E64Q, A77T, A92V, P103A, S109G
notes: IgG1 Fc LALA-PG; also called clone 28; not shown: human IgG1 CH2 and CH3 domains (Fc)

The term koff denotes a measure of how fast the partners let go of each other. By EC50 is commonly meant the concentration needed to bring the measured effect to its halfway point.

Numbering of substitutions follows the chain as printed.

The first experiment has as its target T1, human common cytokine receptor γ-chain …. In words: P.E. off-rate SPR. A digest of the protocol:
(§1)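 Dissociation rates of nanobody (VHH) periplasmic extracts were measured across a 120s window on an amine-coupled carboxymethyl dextran surface bearing about 2500 RUs of receptor; injection flow 30 uL/min.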
Take B1: the koff is 0.00625 s⁻¹.

As to B2, the koff is 0.00131 s⁻¹.

For the molecule B3, the koff was determined as 0.0616 s⁻¹.

Take B4: the dissociation rate constant (koff) worked out at 0.00331 s⁻¹.

Consider B5, for which the koff was found to be 0.000333 s⁻¹.

B6: the koff came out at 0.00126 s⁻¹.

Take B7: the koff was found to be 0.00235 s⁻¹.

Take B8: the koff was 0.0088 s⁻¹.

In a further experiment the target is T2, mouse IL-2Rγ, recombinant protein. In words: P.E. off-rate SPR. In short, it runs like this:
as §1
As to B9, the koff was determined as 0.283 s⁻¹.

Turning to B5, the koff came out at 0.00809 s⁻¹.

For B6, the koff worked out at 0.007 s⁻¹.

B7: the koff came to 0.0149 s⁻¹.

As for B8, the koff amounted to 0.319 s⁻¹.

A further experiment addresses T1, human common cytokine receptor γ-chain …. In words: P.E. binding ELISA. In short, it runs like this:
(§2)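 Read-out: OD at 450 nm, specificity called versus negative controls. Receptor chains (human or mouse IL-2Rα, β, γ) were coated directly overnight at 4° C; 4% Marvel/PBS block 1 h; P.E. at 1:5 dilution in 1% Marvel/PBS incubated 1 h.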
For orientation: ELISA stands for enzyme-linked immunosorbent assay.
As for B1, the OD450 nm was found to be 0.157 OD450 nm.

In the case of B2, the OD450 nm turned out to be 0.362 OD450 nm.

Regarding B3, the OD450 nm stood at 0.407 OD450 nm.

Take B4: the OD450 nm was found to be 0.896 OD450 nm.

As for B5, the OD450 nm was 1.3 OD450 nm.

For B6, the OD450 nm turned out to be 1.81 OD450 nm.

As to B7, the OD450 nm came out at 1.31 OD450 nm.

With B8, the OD450 nm is 0.782 OD450 nm.

The next experiment addresses T2, mouse IL-2Rγ, recombinant protein. In words: P.E. binding ELISA. A digest of the protocol: as §2
B9: the OD450 nm was determined as 0.495 OD450 nm.

Regarding B5, the OD450 nm was 3.6 OD450 nm.

As to B6, the OD450 nm is 1.49 OD450 nm.

As for B7, the OD450 nm worked out at 0.173 OD450 nm.

On to B8, for which the OD450 nm is 0.054 OD450 nm.

The target of another experiment is T1, human common cytokine receptor γ-chain …. In words: ELISA, bivalent VHH-hFc. A digest of the protocol:
(§3)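 Human and cyno receptor subunits coated at 1 μg/mL in PBS pH 7.4 overnight at 4° C, casein-blocked; test antibodies bound 1 h, detected with anti-human IgG Fc-HRP and TMB, A450 (ref 620 nm). EC50 from four-parameter variable-slope nonlinear fit of dose-response binding curves.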
On to B10, for which the EC50 was determined as 0.179 nM.

For the molecule B11, the binding result is reported as “no binding”.

For B12, the EC50 came out at 0.131 nM.

For B13, the EC50 was 0.117 nM.

Turning to B14, the EC50 amounted to 0.137 nM.

As for B15, the EC50 came to 0.117 nM.

For the molecule B16, the EC50 is 0.113 nM.

Consider B17, for which the EC50 worked out at 0.107 nM.

Another experiment deals with T3, cynomolgus monkey IL-2Rγ/CD132 subunit. In words: ELISA, bivalent VHH-hFc. In short, it runs like this: as §3
Consider B10, for which the midpoint of the response, the EC50, lay at 0.26 nM.

For the molecule B11, the binding result is “no binding”.

As for B12, the EC50 turned out to be 0.147 nM.

Turning to B13, it took 0.121 nM to reach a half-maximal effect (EC50).

On to B14, for which the midpoint of the response, the EC50, lay at 0.141 nM.

As to B15, the EC50 worked out at 0.112 nM.

B16 showed an EC50 of 0.133 nM.

Regarding B17, a half-maximal response (EC50) required 0.113 nM.

The target is the same in another experiment. In words: ELISA, bivalent; EC50 cyno vs human subunit. In short, it runs like this: as §3
B10: the Fold change was 1.4 fold.

In the case of B12, the Fold change is 1.1 fold.

For B13, the Fold change turned out to be 1 fold.

Consider B14, for which the Fold change turned out to be 1 fold.

Consider B15, for which the Fold change came out at 1 fold.

Molecule B16 came in with a Fold change of 1.2 fold.

For B17, the Fold change stood at 1.1 fold.

Source of the values: patent US20240409645A1 (DUALYX, published 2024).
